Changes are numbered by the printed parent chain.
B1: Vfr CRE probe (dsDNA)
DNA 1: TCCACGACAATGTGCCTCGCTTGGAAGCTCACGCTCCTCACACAGACGAAAAC
DNA 2: GTTTTCGTCTGTGTGAGGAGCGTGAGCTTCCAAGCGAGGCACATTGTCGTGGA
B2: Vfr CRE-Δ probe (dsDNA)
DNA 1: B1 DNA 1 with T11C, G12C, T13C, G14A
DNA 2: B1 DNA 2 with C40T, A41G, C42G, A43G

Target: T1, His-Vfr (UniProt P55222 1-214)
T1 sequence: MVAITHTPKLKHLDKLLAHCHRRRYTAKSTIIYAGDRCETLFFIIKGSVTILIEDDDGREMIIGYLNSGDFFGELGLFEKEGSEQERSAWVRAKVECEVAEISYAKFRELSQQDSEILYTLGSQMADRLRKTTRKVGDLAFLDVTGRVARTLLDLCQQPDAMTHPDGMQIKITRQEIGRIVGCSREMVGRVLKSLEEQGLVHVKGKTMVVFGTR
Experiment: EMSA

Row | Binder | binding result
1 | B1 | binds
2 | B2 | no binding

From publication PMC6393702
